Experimental data from publication PMC12796476 (Nature Communications, 2025).
One block for each binder: values may come before it.

Key:
[1] = molecular target: Venus-tagged NEDD4-1 HECT domain (HECT4-1-Ven) (Homo sapiens, NEDD4, UniProt P46934); assay: FRET or BRET
[2] = molecular target: full-length NEDD4-2-Venus (Homo sapiens, NEDD4L, UniProt Q96PU5, strain); assay: FRET or BRET
[3] = molecular target: WW4-HECT4-2 domain of NEDD4-2, purified (Homo sapiens, NEDD4L (Q96PU5-1), UniProt Q96PU5-1); assay: BLI
WW4-HECT4-2 domain of NEDD4-2, purified, sequence (Q96PU5 541-975, one chain of several): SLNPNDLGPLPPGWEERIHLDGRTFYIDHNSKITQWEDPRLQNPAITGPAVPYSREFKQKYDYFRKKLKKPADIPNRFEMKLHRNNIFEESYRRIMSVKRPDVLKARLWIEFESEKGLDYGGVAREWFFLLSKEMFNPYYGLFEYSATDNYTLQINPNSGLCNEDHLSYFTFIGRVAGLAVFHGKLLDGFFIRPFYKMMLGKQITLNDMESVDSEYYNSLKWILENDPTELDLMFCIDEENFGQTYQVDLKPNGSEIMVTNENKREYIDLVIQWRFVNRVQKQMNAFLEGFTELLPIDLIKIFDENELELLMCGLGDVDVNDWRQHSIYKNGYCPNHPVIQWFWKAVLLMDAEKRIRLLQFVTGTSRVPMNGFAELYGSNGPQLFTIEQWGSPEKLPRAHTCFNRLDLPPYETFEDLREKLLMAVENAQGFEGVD

full-length NEDD4-2-Venus, sequence (Q96PU5 whole entry, looked up, change not shown): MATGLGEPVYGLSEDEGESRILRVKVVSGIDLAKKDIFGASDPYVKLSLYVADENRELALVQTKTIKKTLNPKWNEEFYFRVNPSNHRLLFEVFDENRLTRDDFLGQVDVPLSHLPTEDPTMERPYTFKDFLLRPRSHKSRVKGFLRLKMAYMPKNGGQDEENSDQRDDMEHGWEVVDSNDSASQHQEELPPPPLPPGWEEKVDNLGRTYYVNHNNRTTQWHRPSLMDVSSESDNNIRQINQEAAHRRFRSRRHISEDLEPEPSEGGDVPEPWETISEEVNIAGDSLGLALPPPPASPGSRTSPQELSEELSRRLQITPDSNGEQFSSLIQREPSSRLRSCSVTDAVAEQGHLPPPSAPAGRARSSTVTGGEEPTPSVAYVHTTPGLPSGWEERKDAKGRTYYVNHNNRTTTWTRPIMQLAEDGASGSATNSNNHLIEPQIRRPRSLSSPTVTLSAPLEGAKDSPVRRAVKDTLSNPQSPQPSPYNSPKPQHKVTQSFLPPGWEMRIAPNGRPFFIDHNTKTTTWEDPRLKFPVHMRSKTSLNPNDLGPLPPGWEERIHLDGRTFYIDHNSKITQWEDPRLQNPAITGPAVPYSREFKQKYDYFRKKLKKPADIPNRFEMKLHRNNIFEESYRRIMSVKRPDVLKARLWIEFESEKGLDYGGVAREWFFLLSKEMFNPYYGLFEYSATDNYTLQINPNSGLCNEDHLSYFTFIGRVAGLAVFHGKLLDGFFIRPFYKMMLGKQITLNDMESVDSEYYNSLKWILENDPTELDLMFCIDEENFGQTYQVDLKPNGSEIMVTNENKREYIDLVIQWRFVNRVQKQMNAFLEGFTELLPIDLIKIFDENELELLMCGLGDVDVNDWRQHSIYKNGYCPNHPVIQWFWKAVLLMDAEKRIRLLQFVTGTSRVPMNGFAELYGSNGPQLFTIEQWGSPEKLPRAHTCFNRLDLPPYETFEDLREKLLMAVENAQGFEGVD
Venus-tagged NEDD4-1 HECT domain (HECT4-1-Ven), sequence (P46934 984-1318): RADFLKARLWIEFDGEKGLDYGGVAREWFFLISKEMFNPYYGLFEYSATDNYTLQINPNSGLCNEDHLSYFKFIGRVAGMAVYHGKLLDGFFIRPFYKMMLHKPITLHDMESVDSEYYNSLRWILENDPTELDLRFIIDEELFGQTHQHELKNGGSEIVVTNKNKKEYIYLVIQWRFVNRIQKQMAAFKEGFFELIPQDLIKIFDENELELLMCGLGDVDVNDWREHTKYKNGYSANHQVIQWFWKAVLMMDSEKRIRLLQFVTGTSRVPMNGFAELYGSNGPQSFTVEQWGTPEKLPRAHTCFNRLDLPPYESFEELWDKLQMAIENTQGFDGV

binding result [1]: no binding
binding result [2]: binds
B1: Cer-nb.C11 (VHH)
VHH: QVQLQESGGGLVQAGGSLRLSCAASGNISDVWYMGWYRQAPGKEREFVAGIAYGTSTYYADSVKGRFTISRDNAKNTVYLQMNSLKPEDTAVYYCAVIITRFVSYPRQHTYWGQGTQVTVSS

Kd [3]: 2 nM
B2: nb.C11 (HIS-tagged, purified) (VHH)
VHH: B1 VHH
